From patent US20050282743A1, “Molecular interactions in cells” (Arbor Vita Corporation, priority 2001, published 2005)

T1: GST-ZO-2 PDZ domain 2 (Homo sapiens (Human)), Q9UDY2
T1 chain: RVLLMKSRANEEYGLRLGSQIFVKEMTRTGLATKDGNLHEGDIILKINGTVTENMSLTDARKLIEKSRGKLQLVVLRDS

T2: GST-ZO-1 PDZ domain 2 (Rattus norvegicus (Rat)), A0A0G2
T2 chain: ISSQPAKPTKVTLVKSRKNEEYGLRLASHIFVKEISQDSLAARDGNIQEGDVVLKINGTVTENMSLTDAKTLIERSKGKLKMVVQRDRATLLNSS

T3: GST-INADL PDZ domain 8 (Homo sapiens (Human)), Q8NI35
T3 chain: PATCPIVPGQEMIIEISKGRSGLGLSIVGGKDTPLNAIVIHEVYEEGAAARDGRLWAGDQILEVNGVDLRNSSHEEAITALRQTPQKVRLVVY

T4: GST-MUPP1 PDZ domain 13 (Homo sapiens (Human)), O75970
T4 chain: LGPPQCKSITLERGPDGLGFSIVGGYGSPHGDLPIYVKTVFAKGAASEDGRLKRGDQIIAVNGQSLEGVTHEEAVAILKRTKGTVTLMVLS

T5: GST-AIPC PDZ domain 1 (Homo sapiens (Human)), O15018
T5 chain: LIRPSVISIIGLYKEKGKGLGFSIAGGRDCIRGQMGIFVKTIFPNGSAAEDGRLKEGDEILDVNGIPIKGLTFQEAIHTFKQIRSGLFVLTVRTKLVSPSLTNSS

T6: GST-KIAA1634 PDZ domain 2 (Homo sapiens (Human)), Q5TCQ9
T6 chain: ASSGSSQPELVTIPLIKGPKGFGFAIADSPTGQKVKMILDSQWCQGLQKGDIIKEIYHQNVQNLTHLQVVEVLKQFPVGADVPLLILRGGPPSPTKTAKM

T7: GST-MINT1 PDZ domains 1, 2, Q02410
T7 chain: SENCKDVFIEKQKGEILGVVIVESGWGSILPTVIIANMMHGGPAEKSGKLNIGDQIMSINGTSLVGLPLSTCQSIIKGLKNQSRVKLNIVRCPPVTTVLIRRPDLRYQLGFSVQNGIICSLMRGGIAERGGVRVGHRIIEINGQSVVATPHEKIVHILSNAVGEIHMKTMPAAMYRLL

T8: GST-Outer Membrane PDZ domain 1 (Homo sapiens (Human)), P57105
T8 chain: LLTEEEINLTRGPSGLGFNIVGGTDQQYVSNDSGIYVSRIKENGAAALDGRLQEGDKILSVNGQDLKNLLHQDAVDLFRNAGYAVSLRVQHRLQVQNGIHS

T9: GST-MUPP1 PDZ domain 10 (Homo sapiens (Human)), O75970
T9 chain: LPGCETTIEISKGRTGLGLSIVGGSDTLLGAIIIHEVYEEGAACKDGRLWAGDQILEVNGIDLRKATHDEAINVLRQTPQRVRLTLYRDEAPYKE

T10: GST-PTPL1 PDZ domain 2 (Homo sapiens (Human)), Q12923
T10 chain: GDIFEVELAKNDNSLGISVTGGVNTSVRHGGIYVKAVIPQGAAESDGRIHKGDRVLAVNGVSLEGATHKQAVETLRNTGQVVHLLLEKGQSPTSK

T11: GST-DLG1 PDZ domain 2 (Homo sapiens), Q12959
T11 chain: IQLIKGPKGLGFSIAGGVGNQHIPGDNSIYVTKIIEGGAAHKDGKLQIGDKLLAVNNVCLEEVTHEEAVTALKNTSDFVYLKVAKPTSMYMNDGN

T12: GST-NeDLG PDZ domains 1, 2, Q92796
T12 chain: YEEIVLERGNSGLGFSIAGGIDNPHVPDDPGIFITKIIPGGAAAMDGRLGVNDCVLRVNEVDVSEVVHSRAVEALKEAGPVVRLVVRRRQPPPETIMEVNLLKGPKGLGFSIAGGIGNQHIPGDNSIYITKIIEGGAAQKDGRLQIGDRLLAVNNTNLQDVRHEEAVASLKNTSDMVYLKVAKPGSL

T13: GST-FLJ 10324 PDZ domain 1 [GST: P08515]
T13 chain: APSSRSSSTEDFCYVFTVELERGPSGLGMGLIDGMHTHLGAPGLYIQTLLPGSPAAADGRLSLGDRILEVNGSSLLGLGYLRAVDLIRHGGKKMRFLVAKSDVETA

T14: GST-NeDLG PDZ domain 2 (Rattus norvegicus (Rat)), Q62936
T14 chain: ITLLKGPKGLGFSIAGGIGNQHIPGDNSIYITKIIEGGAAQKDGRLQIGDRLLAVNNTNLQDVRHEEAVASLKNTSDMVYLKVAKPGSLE

T15: GST-KIAA0807(S) PDZ domain 1 (Homo sapiens (Human)), Q6P0Q8
T15 chain: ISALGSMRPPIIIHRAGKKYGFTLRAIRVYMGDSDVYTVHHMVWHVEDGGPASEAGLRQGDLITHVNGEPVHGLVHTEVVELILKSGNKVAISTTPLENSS

T16: GST-MINT1 PDZ domain 2 (Mus musculus (Mouse)), B2RUJ5
T16 chain: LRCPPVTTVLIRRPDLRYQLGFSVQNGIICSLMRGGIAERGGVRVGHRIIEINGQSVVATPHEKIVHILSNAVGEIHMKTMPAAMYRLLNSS

T17: GST-PTPL1 PDZ domain 4 (Homo sapiens (Human)), Q12923
T17 chain: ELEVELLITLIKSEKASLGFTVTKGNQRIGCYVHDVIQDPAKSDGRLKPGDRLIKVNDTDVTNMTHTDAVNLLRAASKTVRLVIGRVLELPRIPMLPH

T18: GST-APXL-1 PDZ domain 1 (Homo sapiens (Human)), Q13796
T18 chain: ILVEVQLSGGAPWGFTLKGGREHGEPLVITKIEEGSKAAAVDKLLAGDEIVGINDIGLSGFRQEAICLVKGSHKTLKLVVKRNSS

T19: GST-X-11 beta PDZ domain 2 (Rattus norvegicus (Rat)), O35431
T19 chain: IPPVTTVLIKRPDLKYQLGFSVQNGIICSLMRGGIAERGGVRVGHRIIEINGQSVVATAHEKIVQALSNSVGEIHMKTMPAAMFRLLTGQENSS

T20: GST-DLG2 PDZ domain 2 (Homo sapiens (Human)), Q15700
T20 chain: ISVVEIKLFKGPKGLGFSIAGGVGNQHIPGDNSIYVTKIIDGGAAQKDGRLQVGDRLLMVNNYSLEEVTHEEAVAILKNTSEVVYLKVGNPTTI

T21: GST-ENIGMA PDZ domain 1 (Homo sapiens (Human)), Q9NR12
T21 chain: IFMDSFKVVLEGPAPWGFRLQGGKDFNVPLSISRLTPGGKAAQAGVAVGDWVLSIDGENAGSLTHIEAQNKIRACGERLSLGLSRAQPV

T22: GST-HEMBA 1003117 PDZ domain 1 (Homo sapiens (Human)), Q96JH8
T22 chain: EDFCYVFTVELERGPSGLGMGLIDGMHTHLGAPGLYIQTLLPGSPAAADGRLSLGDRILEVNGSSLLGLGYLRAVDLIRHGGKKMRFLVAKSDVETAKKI

T23: GST-ZO-1 PDZ domain 1 (Rattus norvegicus (Rat)), A0A0G2
T23 chain: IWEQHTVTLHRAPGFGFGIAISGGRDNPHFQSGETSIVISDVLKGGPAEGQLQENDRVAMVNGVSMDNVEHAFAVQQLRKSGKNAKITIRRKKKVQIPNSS

T24: GST-ZO-2 PDZ domain 1 (Homo sapiens (Human)), Q9UDY2
T24 chain: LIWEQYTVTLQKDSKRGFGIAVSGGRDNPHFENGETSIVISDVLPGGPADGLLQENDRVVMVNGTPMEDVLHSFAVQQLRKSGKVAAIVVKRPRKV

T25: GST-TIP1 PDZ domain 1 (Table 9 insert) (Homo sapiens (Human)), O14907
T25 chain: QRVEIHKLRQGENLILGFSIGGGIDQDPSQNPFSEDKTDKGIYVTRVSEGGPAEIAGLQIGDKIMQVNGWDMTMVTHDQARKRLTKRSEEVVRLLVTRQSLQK

T26: GST-AF6 PDZ domain 1 (Homo sapiens (Human)), P55196
T26 chain: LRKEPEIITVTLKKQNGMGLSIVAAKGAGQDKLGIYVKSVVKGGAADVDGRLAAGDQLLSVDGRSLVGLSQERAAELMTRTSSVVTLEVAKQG

T27: GST-MUPP1 PDZ domain 11 (Homo sapiens (Human)), O75970
T27 chain: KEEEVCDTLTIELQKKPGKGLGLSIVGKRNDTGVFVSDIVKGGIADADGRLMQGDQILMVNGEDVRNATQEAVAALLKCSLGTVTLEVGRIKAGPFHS


How the values were obtained:
Assay in all cases: G' assay
[1] = biological target: T1, GST-ZO-2 PDZ domain 2 (Homo sapiens …)
[2] = biological target: T2, GST-ZO-1 PDZ domain 2 (Rattus …)
[3] = biological target: GST-BAI-1 Associated Protein PDZ domain 5 (Homo sapiens (Human)), Q96QZ7
GST-BAI-1 Associated Protein PDZ domain 5 (Homo sapiens (Human)), Q96QZ7, sequence (Q96QZ7 988-1099): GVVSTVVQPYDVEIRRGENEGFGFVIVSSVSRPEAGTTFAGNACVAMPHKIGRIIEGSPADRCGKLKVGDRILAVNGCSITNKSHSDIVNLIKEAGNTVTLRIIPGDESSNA

[4] = biological target: T3, GST-INADL PDZ domain 8 (Homo sapiens …)
[5] = biological target: GST-BAI-1 Associated Protein PDZ domain 2 (Mus musculus (Mouse)), Q6RHR9
GST-BAI-1 Associated Protein PDZ domain 2 (Mus musculus (Mouse)), Q6RHR9, sequence (Q6RHR9 455-558): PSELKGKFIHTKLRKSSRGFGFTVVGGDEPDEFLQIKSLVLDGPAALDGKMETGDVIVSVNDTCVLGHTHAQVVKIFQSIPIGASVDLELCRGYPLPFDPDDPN

[6] = biological target: GST-PSD95 PDZ domains 1, 2, 3 (Homo sapiens), P78352
GST-PSD95 PDZ domains 1, 2, 3 (Homo sapiens), P78352, sequence (P78352 62-395): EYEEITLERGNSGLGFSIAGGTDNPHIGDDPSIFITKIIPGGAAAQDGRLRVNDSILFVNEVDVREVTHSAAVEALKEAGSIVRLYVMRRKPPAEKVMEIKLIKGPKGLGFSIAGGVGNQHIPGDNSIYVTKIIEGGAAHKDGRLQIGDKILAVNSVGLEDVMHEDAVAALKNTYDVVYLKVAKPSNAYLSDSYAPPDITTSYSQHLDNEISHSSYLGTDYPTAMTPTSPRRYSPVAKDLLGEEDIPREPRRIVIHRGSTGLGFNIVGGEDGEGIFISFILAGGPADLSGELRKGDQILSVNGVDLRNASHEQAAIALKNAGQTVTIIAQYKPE

[7] = biological target: T4, GST-MUPP1 PDZ domain 13 (Homo sapiens …)
[8] = biological target: GST-PSD95 PDZ domain 1 (Homo sapiens)
[9] = biological target: T5, GST-AIPC PDZ domain 1 (Homo sapiens …)
[10] = biological target: T6, GST-KIAA1634 PDZ domain 2 (Homo sapiens …)
[11] = biological target: T7, GST-MINT1 PDZ domains 1, 2, Q02410
[12] = biological target: GST-KIAA1634 PDZ domain 1 (Homo sapiens (Human)), Q5TCQ9
GST-KIAA1634 PDZ domain 1 (Homo sapiens (Human)), Q5TCQ9, sequence (Q5TCQ9 401-502): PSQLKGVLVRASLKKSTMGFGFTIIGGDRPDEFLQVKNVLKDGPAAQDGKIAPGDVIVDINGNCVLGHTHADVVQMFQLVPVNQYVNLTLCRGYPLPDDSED

[13] = biological target: T8, GST-Outer Membrane PDZ domain 1 (Homo …)
[14] = biological target: GST-DLG1 PDZ domain 1 (Homo sapiens), Q12959
[15] = biological target: T9, GST-MUPP1 PDZ domain 10 (Homo sapiens …)
[16] = biological target: T10, GST-PTPL1 PDZ domain 2 (Homo sapiens …)
[17] = biological target: GST-KIAA807 [GST: P08515]
GST-KIAA807 [GST: P08515], sequence (P08515 whole entry, the tested form may be a part): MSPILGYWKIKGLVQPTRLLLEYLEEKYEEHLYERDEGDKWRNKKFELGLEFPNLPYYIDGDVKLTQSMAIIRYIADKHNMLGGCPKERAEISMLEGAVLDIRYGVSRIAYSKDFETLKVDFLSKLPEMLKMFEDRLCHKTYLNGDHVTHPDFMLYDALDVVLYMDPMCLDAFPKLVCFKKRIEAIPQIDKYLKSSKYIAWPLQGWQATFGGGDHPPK

[18] = biological target: T11, GST-DLG1 PDZ domain 2 (Homo sapiens), …
[19] = biological target: T12, GST-NeDLG PDZ domains 1, 2, Q92796
[20] = biological target: T13, GST-FLJ 10324 PDZ domain 1 [GST: P08515]
[21] = biological target: T14, GST-NeDLG PDZ domain 2 (Rattus …)
[22] = biological target: GST-BAI-1 Associated Protein PDZ domain 4 (Homo sapiens (Human)), Q96QZ7
GST-BAI-1 Associated Protein PDZ domain 4 (Homo sapiens (Human)), Q96QZ7, sequence (Q96QZ7 other isoform, or with tags, fused parts or gaps): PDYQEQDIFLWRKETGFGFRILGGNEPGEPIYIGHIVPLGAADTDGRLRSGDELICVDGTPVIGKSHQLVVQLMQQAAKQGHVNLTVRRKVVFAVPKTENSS

[23] = biological target: T15, GST-KIAA0807(S) PDZ domain 1 (Homo …)
[24] = biological target: T16, GST-MINT1 PDZ domain 2 (Mus musculus …)
[25] = biological target: T17, GST-PTPL1 PDZ domain 4 (Homo sapiens …)
[26] = biological target: T18, GST-APXL-1 PDZ domain 1 (Homo sapiens …)
[27] = biological target: T19, GST-X-11 beta PDZ domain 2 (Rattus …)
[28] = biological target: GST-DLG1 PDZ domains 1, 2 (Homo sapiens), Q12959
[29] = biological target: T20, GST-DLG2 PDZ domain 2 (Homo sapiens …)
[30] = biological target: GST-KIAA0147 PDZ domain 1 (Homo sapiens (Human)), Q14160
GST-KIAA0147 PDZ domain 1 (Homo sapiens (Human)), Q14160, sequence (Q14160 other isoform, or with tags, fused parts or gaps): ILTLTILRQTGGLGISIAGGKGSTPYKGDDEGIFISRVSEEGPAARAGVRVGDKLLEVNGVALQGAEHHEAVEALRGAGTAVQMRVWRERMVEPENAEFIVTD

[31] = biological target: T21, GST-ENIGMA PDZ domain 1 (Homo sapiens …)
[32] = biological target: T22, GST-HEMBA 1003117 PDZ domain 1 (Homo …)
[33] = biological target: T23, GST-ZO-1 PDZ domain 1 (Rattus …)
[34] = biological target: T24, GST-ZO-2 PDZ domain 1 (Homo sapiens …)
[35] = biological target: T25, GST-TIP1 PDZ domain 1 (Table 9 insert) …
[36] = biological target: GST-PIST PDZ domain 1 (Mus musculus (Mouse)), Q8BH60
[37] = biological target: T26, GST-AF6 PDZ domain 1 (Homo sapiens …)
[38] = biological target: T27, GST-MUPP1 PDZ domain 11 (Homo sapiens …)
Also: key of the grades not given here.

| Binder | Classification [6] [A450 class] | Classification [9] [A450 class] | Classification [11] [A450 class] | Classification [12] [A450 class] | Classification [15] [A450 class] | Classification [17] [A450 class] | Classification [18] [A450 class] | Classification [19] [A450 class] | Classification [20] [A450 class] | Classification [23] [A450 class] | Classification [25] [A450 class] | Classification [26] [A450 class] | Classification [28] [A450 class] | Classification [31] [A450 class] | also measured |
| --- | --- | --- | --- | --- | --- | --- | --- | --- | --- | --- | --- | --- | --- | --- | --- |
| PSSRASSRASSRPRPDDLEI (modifications not checked) [CX43 (connexin 43)] |  |  |  |  |  |  |  |  |  |  |  |  |  |  | Classification [1]: 1 A450 class; Classification [2]: 2 A450 class |
| ISGTPTSTMVHGMTSSSSVV (modifications not checked) [Clasp-2] | 2 | 1 | 1 | 1 | 1 | 1 | 1 | 2 | 1 |  |  |  |  |  | Classification [3]: 1 A450 class; Classification [4]: 1 A450 class; Classification [5]: 1 A450 class; Classification [7]: 1 A450 class; Classification [8]: 1 A450 class; Classification [10]: 1 A450 class; Classification [13]: 1 A450 class; Classification [14]: 1 A450 class; Classification [16]: 1 A450 class; Classification [21]: 1 A450 class |
| NGGFAVDKSDTISFTQTSQF (modifications not checked) [glutamate transporter 3] |  |  | 1 |  | 1 | 1 |  |  |  | 1 | 1 | 1 |  |  | Classification [22]: 1 A450 class; Classification [24]: 1 A450 class; Classification [27]: 1 A450 class |
| GGGGGSGGGGGSGIESVKI (modifications not checked) [GLUR2 (glutamate receptor 2-modified)] | 2 | 2 |  | 4 |  |  | 1 | 2 |  | 1 |  |  | 2 | 1 | Classification [29]: 1 A450 class; Classification [30]: 1 A450 class |
| GPVPGEPAKPKTSAHHATFV (modifications not checked) [RGS12 (regulator of G-protein signaling 12] |  |  |  |  |  |  |  |  | 1 |  | 1 |  | 1 |  | Classification [32]: 1 A450 class; Classification [33]: 1 A450 class; Classification [34]: 1 A450 class; Classification [35]: 1 A450 class; Classification [36]: 1 A450 class; Classification [37]: 1 A450 class; Classification [38]: 1 A450 class |
| EVIGYIEKPGVETLEDSVF (modifications not checked) [CDW125 (modified)] |  |  |  |  |  |  |  |  |  |  |  | 1 |  | 1 |  |
